Experimental data from patent US20230257473A1 (TENEOBIO, published 2023).

Assays:
[1] = biological target: BCMA on BCMA-expressing cells (H929 / NCI-H929, MM1.S, U266, Daudi) (human) (UniProt Q02223); assay: flow cytometry on H929 cells; antibody 0.391 ng/ml
[2] = biological target: BCMA on BCMA-expressing cells (H929 / NCI-H929, MM1.S, U266, Daudi) (human) (UniProt Q02223); assay: flow cytometry on H929 cells; antibody 0.781 ng/ml
[3] = biological target: BCMA on BCMA-expressing cells (H929 / NCI-H929, MM1.S, U266, Daudi) (human) (UniProt Q02223); assay: flow cytometry on H929 cells; antibody 25.000 ng/ml
[4] = biological target: BCMA on BCMA-expressing cells (H929 / NCI-H929, MM1.S, U266, Daudi) (human) (UniProt Q02223); assay: flow cytometry on MM1.S cells; antibody 0.391 ng/ml
[5] = biological target: BCMA on BCMA-expressing cells (H929 / NCI-H929, MM1.S, U266, Daudi) (human) (UniProt Q02223); assay: flow cytometry on MM1.S cells; antibody 1.560 ng/ml
[6] = biological target: BCMA on BCMA-expressing cells (H929 / NCI-H929, MM1.S, U266, Daudi) (human) (UniProt Q02223); assay: flow cytometry on H929 cells; antibody 200.000 ng/ml
[7] = biological target: BCMA on BCMA-expressing cells (H929 / NCI-H929, MM1.S, U266, Daudi) (human) (UniProt Q02223); assay: flow cytometry on MM1.S cells; antibody 25.000 ng/ml
[8] = biological target: BCMA on BCMA-expressing cells (H929 / NCI-H929, MM1.S, U266, Daudi) (human) (UniProt Q02223); assay: flow cytometry on MM1.S cells; antibody 50.000 ng/ml
[9] = biological target: BCMA on BCMA-expressing cells (H929 / NCI-H929, MM1.S, U266, Daudi) (human) (UniProt Q02223); assay: flow cytometry on MM1.S cells; antibody 100.000 ng/ml
[10] = biological target: BCMA on BCMA-expressing cells (H929 / NCI-H929, MM1.S, U266, Daudi) (human) (UniProt Q02223); assay: flow cytometry on MM1.S cells; antibody 200.000 ng/ml
[11] = biological target: recombinant BCMA (R&D Systems, catalog no. 193-BC) (human) (UniProt Q02223); assay: competitive ELISA, plate-bound BCMA; Ab 0.200 ng/mL; competitor APRIL 7.81 ng/mL
recombinant BCMA (R&D Systems, catalog no. 193-BC) (human), sequence (Q02223 5-51 limits assumed): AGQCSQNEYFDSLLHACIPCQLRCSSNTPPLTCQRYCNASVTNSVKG

[12] = biological target: recombinant BCMA (R&D Systems, catalog no. 193-BC) (human) (UniProt Q02223); assay: competitive ELISA, plate-bound BCMA; Ab 2.000 ng/mL; competitor APRIL 7.81 ng/mL
[13] = biological target: recombinant BCMA (R&D Systems, catalog no. 193-BC) (human) (UniProt Q02223); assay: competitive ELISA, plate-bound BCMA; Ab 0.002 ng/mL; competitor APRIL 31.25 ng/mL
[14] = biological target: recombinant BCMA (R&D Systems, catalog no. 193-BC) (human) (UniProt Q02223); assay: competitive ELISA, plate-bound BCMA; Ab 0.200 ng/mL; competitor APRIL 31.25 ng/mL
[15] = biological target: recombinant BCMA (R&D Systems, catalog no. 193-BC) (human) (UniProt Q02223); assay: competitive ELISA, plate-bound BCMA; Ab 0.200 ng/mL; competitor APRIL 62.50 ng/mL
[16] = biological target: recombinant BCMA (R&D Systems, catalog no. 193-BC) (human) (UniProt Q02223); assay: competitive ELISA, plate-bound BCMA; Ab 0.002 ng/mL; competitor APRIL 125.00 ng/mL
[17] = biological target: recombinant BCMA (R&D Systems, catalog no. 193-BC) (human) (UniProt Q02223); assay: competitive ELISA, plate-bound BCMA; Ab 0.002 ng/mL; competitor APRIL 250.00 ng/mL
[18] = biological target: recombinant BCMA (R&D Systems, catalog no. 193-BC) (human) (UniProt Q02223); assay: competitive ELISA, plate-bound BCMA; Ab 0.200 ng/mL; competitor APRIL 500.00 ng/mL
[19] = biological target: recombinant BCMA (R&D Systems, catalog no. 193-BC) (human) (UniProt Q02223); assay: competitive ELISA, plate-bound BCMA; Ab 2.000 ng/mL; competitor APRIL 250.00 ng/mL
[20] = biological target: recombinant BCMA (R&D Systems, catalog no. 193-BC) (human) (UniProt Q02223); assay: competitive ELISA, plate-bound BCMA; Ab 2.000 ng/mL; competitor APRIL 500.00 ng/mL
[21] = biological target: recombinant BCMA (R&D Systems, catalog no. 193-BC) (human) (UniProt Q02223); assay: competitive ELISA, plate-bound BCMA; Ab 20.000 ng/mL; competitor APRIL 15.63 ng/mL
[22] = biological target: recombinant BCMA (R&D Systems, catalog no. 193-BC) (human) (UniProt Q02223); assay: competitive ELISA, plate-bound BCMA; Ab 20.000 ng/mL; competitor APRIL 31.25 ng/mL
[23] = biological target: recombinant BCMA (R&D Systems, catalog no. 193-BC) (human) (UniProt Q02223); assay: competitive ELISA, plate-bound BCMA; Ab 20.000 ng/mL; competitor APRIL 62.50 ng/mL
[24] = biological target: recombinant BCMA (R&D Systems, catalog no. 193-BC) (human) (UniProt Q02223); assay: competitive ELISA, plate-bound BCMA; Ab 20.000 ng/mL; competitor APRIL 500.00 ng/mL
[25] = biological target: recombinant BCMA (R&D Systems, catalog no. 193-BC) (human) (UniProt Q02223); assay: competitive ELISA, plate-bound BCMA; Ab 200.000 ng/mL; competitor APRIL 62.50 ng/mL
[26] = biological target: BCMA on BCMA-expressing cells (H929 / NCI-H929, MM1.S, U266, Daudi) (human) (UniProt Q02223); assay: flow cytometry on H929 cells; antibody 0.000 ng/ml (background)

BCMA on BCMA-expressing cells (H929 / NCI-H929, MM1.S, U266, Daudi) (human), sequence (Q02223 whole entry): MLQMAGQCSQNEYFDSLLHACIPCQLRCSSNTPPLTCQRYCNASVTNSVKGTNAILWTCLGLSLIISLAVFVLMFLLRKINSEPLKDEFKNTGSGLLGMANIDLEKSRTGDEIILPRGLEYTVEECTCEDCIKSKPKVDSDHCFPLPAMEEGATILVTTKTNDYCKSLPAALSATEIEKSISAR

B1: AntiX**BCMA_F7E_F7E (bispecific antibody, part only; not given: other chains of three-chain format, not shown: another chain or arm of the molecule)
tandem VH: QVQLVESGGGLVQPGGSLRLSCVASGFTFSSNAMSWVRQAPGKGLEWVSAISGSGDYTHYSDSVKGRFTISRDNSKNTLYLQMNSLRAEDTAVYYCAKEVPGGPLVDFDSRGQGTLVTVSSGGGGSGGGGSQVQLVESGGGLVQPGGSLRLSCVASGFTFSSNAMSWVRQAPGKGLEWVSAISGSGDYTHYSDSVKGRFTISRDNSKNTLYLQMNSLRAEDTAVYYCAKEVPGGPLVDFDSRGQGTLVTVSS
[1]
  MFI: 5040
[2]
  MFI: 5020
[3]
  MFI: 6610
[4]
  MFI: 2030
[5]
  MFI: 2030
[6]
  MFI: 52900
[7]
  MFI: 2340
[8]
  MFI: 2930
[9]
  MFI: 4140
[10]
  MFI: 7340
[11]
  A450-A570: 0.0577
[12]
  A450-A570: 0.108
[13]
  A450-A570: 0.0528
[14]
  A450-A570: 0.0601
[15]
  A450-A570: 0.0595
[16]
  A450-A570: 0.0607
[17]
  A450-A570: 0.0607
[18]
  A450-A570: 0.0603
[19]
  A450-A570: 0.0921
[20]
  A450-A570: 0.0732
[21]
  A450-A570: 0.778
[22]
  A450-A570: 0.828
[23]
  A450-A570: 0.537
[24]
  A450-A570: 0.253
[25]
  A450-A570: 2.44
[26]
  MFI: 5000

B2: anti-BCMA heavy chain-only antibody (UniAb) with the VH of SEQ ID NO: 12 (antibody, V domains shown)
VH: QVQLVESGGGLVQPGGSLRLSCVASGFTFSSNAMSWVRQAPGKGLEWVSAISGSGDYTHYSDSVKGRFTISRDNSKNTLYLQMNSLRAEDTAVYYCAKEVPGGPLVDFDSRGQGTLVTVSS
notes: Heavy chain-only antibody from UniRat; also called Clone ID No: 316302
[1]
  MFI: 5030
[2]
  MFI: 5060
[3]
  MFI: 5480
[4]
  MFI: 2070
[5]
  MFI: 2110
[6]
  MFI: 14100
[7]
  MFI: 2130
[8]
  MFI: 2180
[9]
  MFI: 2440
[10]
  MFI: 3180
[11]
  A450-A570: 0.0643
[12]
  A450-A570: 0.0895
[13]
  A450-A570: 0.058
[14]
  A450-A570: 0.062
[15]
  A450-A570: 0.0631
[16]
  A450-A570: 0.066
[17]
  A450-A570: 0.0647
[18]
  A450-A570: 0.0745
[19]
  A450-A570: 0.0837
[20]
  A450-A570: 0.0711
[21]
  A450-A570: 0.482
[22]
  A450-A570: 0.418
[23]
  A450-A570: 0.359
[24]
  A450-A570: 0.112
[25]
  A450-A570: 2.07
[26]
  MFI: 5000
